The values below come from paper doi:10.1101/489906 (bioRxiv, 2018).

One assay addresses T1, NSW-2012 GII.4 P domain (Norovirus …, strain).
T1 chain: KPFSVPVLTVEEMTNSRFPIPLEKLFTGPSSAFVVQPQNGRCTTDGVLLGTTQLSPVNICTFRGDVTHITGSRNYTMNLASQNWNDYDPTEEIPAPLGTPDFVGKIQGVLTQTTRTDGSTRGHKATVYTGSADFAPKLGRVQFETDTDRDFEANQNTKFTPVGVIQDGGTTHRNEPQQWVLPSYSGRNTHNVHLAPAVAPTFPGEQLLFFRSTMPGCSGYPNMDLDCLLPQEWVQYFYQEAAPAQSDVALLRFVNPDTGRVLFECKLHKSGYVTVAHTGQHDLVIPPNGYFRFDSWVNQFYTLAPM
Nature of the assay: ITC. A general note: ITC needs no label: the signal is the heat of the interaction.

A further assay addresses Saga-2006 GII.4 VLPs (Norovirus Hu/GII.4/Saga4/2006/JP …, UniProt B5BTR7, strain). Description: ELISA. On the technique in general: In an ELISA, binding on a coated surface is turned into a signal by an enzyme label.
The target in another assay is CHDC-1974 GII.4 VLPs (Norovirus Hu/GII.4/CHDC2094/1974/US …, UniProt D0QJ68, strain). Nature of the assay: ELISA.

B1: 10E9 MAb (IgG) (antibody, V domains shown)
VH: QVQLQQSGAELMKPGASVKISCTATGYTFITYWIQWVKQRPGHGLEWIGETLPGSGSTNYNEKFKGKATFTADTSSNTAYMQLSSLTSEDSAIYYCARIGRSNDYWGQGTTLTVSS
VL: QIVLTQSPTIMSASPGEKVTMTCSASSSVDYMHWYQQKSGTSPKRWIYDTYKLASGVPARFSGSGSGTSYSLTINSMEAEDAATYYCQQWSSNPLTFGAGTKLELK
The Kd is the free concentration of one partner at which half of the binding sites on the other are occupied at equilibrium, for simple one-to-one binding. The term stoichiometry N denotes the number of molecules, sites or subunits per partner or assembly. Consider B1, for which, in the assay with NSW-2012 GII.4 P domain, the Kd is 59 nM, the dH is -4.3 ± 0.011 kcal/mol and the “stoichiometry N” value was 0.98. Also, in the assay with Saga-2006 GII.4 VLPs, the binding result is reported as “binds”. Also, the binding result with CHDC-1974 GII.4 VLPs is “no binding”.
